Columns and labels:
[1] = biological target: chimeric receptor consisting of the extracellular and membrane domain of VEGFR1 fused to the cytoplasmic domain of gp130, on 293A12 cells (UniProt P17948); test: cell-based or functional assay
[2] = biological target: T1, VEGF-R2/Fc chimeric protein (R&D systems) (human, UniProt P35968 20-764); test: SPR (Biacore 2000), VEGF-B167 immobilised, receptor injected
T1 construct: Bought from R&D systems; not shown: human immunoglobulin Fc domain
Method: For control purposes binding of the receptors to VEGF-A₁₆₅ was also monitored. Both VEGF-B₁₆₇ and VEGF-A₁₆₅ were individually immobilised to a sensorchip using NHS/EDC chemistry according to the manufacturer's instructions. Briefly, 35 μl of NHS and EDC was injected onto the sensorchip at a flow rate of 5 μl/min to activate the sensor surface and enable covalent coupling of either VEGF-A₁₆₅ or VEGF-B₁₆₇. […] Post coupling, diaminoethane (50 mM, pH 9.0) was used to block any unbound activated sites on the sensor surface. Concentrated dimeric VEGF-B₁₆₇ (200 μg/ml) was diluted (1:10) in 20 mM sodium acetate and immobilized onto a separate channel on the sensorchip. Post coupling, diaminoethane (50 mM, pH 9.0) was used to block any unbound activated sites on the sensor surface.
At the end of each run, the surface of the sensorchip was regenerated using 2 cycles of phosphoric acid (0.1 M, 30 μl) at a flow of 50 μl/min. […] Both were diluted into 0.1% w/v BSA in PBS as a stock solution (50 μg/ml, storage −20° C.).

[3] = biological target: T2, VEGF-R1/Fc chimeric protein (R&D systems) (human, UniProt P17948 27-687, limits assumed); test: competition ELISA on captured VEGF-R1/Fc (100 ng/ml); competitor VEGF-A165 at 10 ng/ml, detected with biotinylated anti-VEGF-A165
T2 construct: Bought from R&D systems; also called VEGF-R1/Flt-1; soluble VEGFR1-Ig chimeric protein; not shown: human immunoglobulin Fc domain
T2 sequence (P17948 27-687 limits assumed, change not shown): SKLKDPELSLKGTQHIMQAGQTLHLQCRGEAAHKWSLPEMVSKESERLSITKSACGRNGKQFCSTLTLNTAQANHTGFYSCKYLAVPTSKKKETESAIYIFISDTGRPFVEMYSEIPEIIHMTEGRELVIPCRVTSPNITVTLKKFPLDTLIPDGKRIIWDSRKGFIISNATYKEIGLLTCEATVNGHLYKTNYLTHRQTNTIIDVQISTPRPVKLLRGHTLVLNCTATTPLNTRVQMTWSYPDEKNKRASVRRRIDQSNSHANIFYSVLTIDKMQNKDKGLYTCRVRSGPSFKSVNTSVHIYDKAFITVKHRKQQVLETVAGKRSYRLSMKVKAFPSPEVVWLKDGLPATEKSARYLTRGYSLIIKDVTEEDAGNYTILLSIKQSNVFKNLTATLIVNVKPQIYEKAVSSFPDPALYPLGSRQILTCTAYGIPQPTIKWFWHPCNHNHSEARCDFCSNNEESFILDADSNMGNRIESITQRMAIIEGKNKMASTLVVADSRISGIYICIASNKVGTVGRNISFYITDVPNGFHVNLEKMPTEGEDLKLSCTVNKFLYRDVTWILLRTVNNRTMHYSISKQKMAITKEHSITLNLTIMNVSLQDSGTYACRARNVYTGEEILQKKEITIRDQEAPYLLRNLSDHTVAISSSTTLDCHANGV
Method: 3. […] Plates were incubated for 90 min at room temperature.
5. VEGF-A₁₆₅ was added (indicated concentration in Buffer 20) and incubated at room temp for 1 hr. In competition experiments, VEGF-B₁₆₇ was added 30 min prior to the addition of VEGF-A₁₆₅. A range of VEGF-B₁₆₇ concentrations were used to compete with VEGF-A₁₆₅ at a final concentration of 10 ng/ml.
7. Biotinylated anti-VEGF-A₁₆₅ (10 ng/ml in Buffer 20, 100 μl) was added and incubated for 1 hr.

Sequence of chimeric receptor consisting of the extracellular and membrane domain of VEGFR1 fused to the cytoplasmic domain of gp130, on 293A12 cells (P17948 other isoform, or with tags, fused parts or gaps mutant limits assumed): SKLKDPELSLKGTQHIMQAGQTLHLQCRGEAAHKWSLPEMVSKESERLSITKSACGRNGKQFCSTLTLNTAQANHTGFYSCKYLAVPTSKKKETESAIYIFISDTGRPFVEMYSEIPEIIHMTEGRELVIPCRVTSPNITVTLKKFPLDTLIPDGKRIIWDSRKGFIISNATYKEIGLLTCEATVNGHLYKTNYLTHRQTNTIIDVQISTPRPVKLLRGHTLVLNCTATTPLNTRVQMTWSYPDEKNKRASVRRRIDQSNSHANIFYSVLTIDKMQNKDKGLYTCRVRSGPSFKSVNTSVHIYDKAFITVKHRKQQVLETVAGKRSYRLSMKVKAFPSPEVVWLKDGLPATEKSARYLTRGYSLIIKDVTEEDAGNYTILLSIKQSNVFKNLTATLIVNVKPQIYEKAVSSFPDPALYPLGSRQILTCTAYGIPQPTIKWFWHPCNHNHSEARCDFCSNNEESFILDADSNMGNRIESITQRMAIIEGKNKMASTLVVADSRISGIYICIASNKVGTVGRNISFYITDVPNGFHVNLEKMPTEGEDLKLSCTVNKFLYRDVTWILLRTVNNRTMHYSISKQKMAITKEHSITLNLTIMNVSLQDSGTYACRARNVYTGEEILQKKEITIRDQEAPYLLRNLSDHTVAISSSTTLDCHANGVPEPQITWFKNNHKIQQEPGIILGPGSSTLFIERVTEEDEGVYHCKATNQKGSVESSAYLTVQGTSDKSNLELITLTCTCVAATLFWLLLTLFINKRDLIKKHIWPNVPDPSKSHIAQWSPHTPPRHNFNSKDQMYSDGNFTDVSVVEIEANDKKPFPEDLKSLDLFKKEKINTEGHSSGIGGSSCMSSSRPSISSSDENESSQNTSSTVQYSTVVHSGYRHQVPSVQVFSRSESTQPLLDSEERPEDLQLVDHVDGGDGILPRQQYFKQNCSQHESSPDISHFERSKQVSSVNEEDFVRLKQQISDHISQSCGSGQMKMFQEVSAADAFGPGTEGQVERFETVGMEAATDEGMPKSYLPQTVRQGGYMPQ
T1 sequence (P35968 20-764 limits assumed, change not shown): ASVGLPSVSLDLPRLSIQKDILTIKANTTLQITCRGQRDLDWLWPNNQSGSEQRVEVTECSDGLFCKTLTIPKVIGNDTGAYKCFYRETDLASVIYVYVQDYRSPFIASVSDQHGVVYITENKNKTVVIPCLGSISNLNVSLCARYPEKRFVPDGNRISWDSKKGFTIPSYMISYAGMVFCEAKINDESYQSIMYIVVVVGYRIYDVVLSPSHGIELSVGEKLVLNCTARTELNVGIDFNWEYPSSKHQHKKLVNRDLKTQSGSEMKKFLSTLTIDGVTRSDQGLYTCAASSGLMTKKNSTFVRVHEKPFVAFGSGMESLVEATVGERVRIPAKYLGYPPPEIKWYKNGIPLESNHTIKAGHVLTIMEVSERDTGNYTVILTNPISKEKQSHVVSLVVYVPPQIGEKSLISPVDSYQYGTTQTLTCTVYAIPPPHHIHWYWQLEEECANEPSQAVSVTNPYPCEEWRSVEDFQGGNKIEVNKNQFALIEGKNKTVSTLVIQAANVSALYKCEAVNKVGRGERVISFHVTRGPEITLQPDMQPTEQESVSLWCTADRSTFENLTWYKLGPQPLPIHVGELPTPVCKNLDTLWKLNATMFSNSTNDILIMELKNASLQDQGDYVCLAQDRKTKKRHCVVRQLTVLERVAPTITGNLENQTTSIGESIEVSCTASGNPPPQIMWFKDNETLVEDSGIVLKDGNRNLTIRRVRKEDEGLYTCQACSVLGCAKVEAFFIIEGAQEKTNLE

ED50 of luciferase production in 293A12 cells with the chimeric receptor [1] [µg/mL] | binding result [2] | IC50 [3] [µg/mL] | Molecule
0.01 to 0.05 | – | – | VEGF-A (commercially available recombinant protein, Example 28) (from UniProt P15692 27-191) (ligand)
– | no binding | ~0.02 | purified refolded dimeric VEGF-B167 (ligand, human, UniProt P49765-2 22-188, looked up, not shown: small tags and cut ends, mature) PVSQPDAPGHQRKVVSWIDVYTRATCQPREVVVPLTVELMGTVAKQLVPSCVTVQRCGGCCPDDGLECVPTGQHQVRMQILMIRYPSSQLGEMSLEEHSQCECRPKKKDSAVKPDSPRPLCPRCTQHHQRPDPRTCRCRCRRRSFLRCQGRGLELNPDTCRCRKLRR
